± gives the standard error.
B1: library; numbered along this chain (parent)
chain: MATDAALRRLLRLHRTEIAVAVDSAFPLLHALADHDVVPEDKFQETLHLKEKEGCPQAFHALLSWLLTQDSTAILDFWRVLFKDYNLERYGRLQPILDSFPKDVDLSQPRKGRKPPAVPKALVPPPRLPTKRKASEEARAAAPAALTPRGTASPGSQLKAKPPKKPESSAEQQRLPLGNGIQTMSASVQRAVAMSSGDVPGARGAVEGILIQQVFESGGSKKCIQVGGEFYTPSKFEDSGSGKNKARSSSGPKPLVRAKGAQGAAPGGGEARLGQQGSVPAPLALPSDPQLHQKNEDECAVCRDGGELICCDGCPRAFHLACLSPPLREIPSGTWRCSSCLQATVQEVQPRAEEPRPQEPPVETPLPPGLRSAGEEVRGPPGEPLAGMDTTLVYKHLPAPPSAAPLPGLDSSALHPLLCVGPEGQQNLAPGARCGVCGDGTDVLRCTHCAAAFHWRCHFPAGTSRPGTGLRCRSCSGDVTPAPVEGVLAPSPARLAPGPAKDDTASHEPALHRDDLESLLSEHTFDGILQWAIQSMARPAAPFPS

Variants of: B1
Assay: AIRE transcriptional activation functional score (insulin promoter-GFP; nonsense median 0, synonymous median 1) (normalised score); higher = higher AIRE activity (more reporter activation)
Conditions: with insulin promoter-GFP reporter in HEK293
How it was run: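 Three regions of AIRE were covered by codon-optimized NNN-codon libraries, which Bxb1 recombinase integrated into Flp-In T-REx HEK293 landing-pad cells that carry an insulin core promoter-GFP reporter. Integrants (mCherry+, BFP−) were sorted at day 7 and expanded 7 days, and then the top 10% GFP population and the unselected integrant population were tile-sequenced. The functional score is the enrichment of each variant in select versus non-select cells, with wild type subtracted. Variants required 10 counts per million in non-select, and values were rescaled to a nonsense median of 0 and a synonymous median of 1, then averaged over biological replicates.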

Row | Variant | AIRE transcriptional activation functional score
1 | P350R | 1.18 ± 0.23
2 | P350V | 1.01 ± 0.088
3 | P350D | 1.09 ± 0.12
4 | P350F | 1.25 ± 0.27
5 | P350L | 1.17 ± 0.092
6 | P350W | 1.02 ± 0.042
7 | P350S | 0.947 ± 0.17
8 | P350Y | 0.767 ± 0.26
9 | P350C | 0.761 ± 0.15
10 | P350E | 1.04 ± 0.11
11 | P350Q | 0.912 ± 0.13
12 | P350K | 0.93 ± 0.039
13 | P350A | 1.13 ± 0.18
14 | P350H | 1.47 ± 0.12
15 | P350G | 1.14 ± 0.19
16 | P350N | 1.37 ± 0.076
17 | P350M | 1.11 ± 0.077
18 | P350I | 1.14 ± 0.2
19 | P350T | 0.866 ± 0.16
20 | Q358D | 0.761 ± 0.22
21 | Q358S | 1.04 ± 0.18
22 | Q358R | 1.17 ± 0.2
23 | Q358F | 1.16 ± 0.086
24 | Q358A | 0.941 ± 0.3

Row | Variant | AIRE transcriptional activation functional score
25 | Q358V | 1.07 ± 0.28
26 | Q358C | 0.97 ± 0.14
27 | Q358N | 1.18 ± 0.22
28 | Q358K | 1.02 ± 0.087
29 | Q358Y | 1.04 ± 0.092
30 | Q358I | 1.1 ± 0.07
31 | Q358H | 1.12 ± 0.12
32 | Q358M | 1.12 ± 0.088
33 | Q358L | 1.14 ± 0.12
34 | Q358T | 0.929 ± 0.26
35 | Q358G | 1.34 ± 0.21
36 | Q358W | 1.27 ± 0.13
37 | Q358P | 1.05 ± 0.21
38 | Q358E | 1.19 ± 0.069
39 | T364P | 0.694 ± 0.36
40 | T364I | 0.829 ± 0.27
41 | T364G | 0.32 ± 0.29
42 | T364W | 1.73 ± 0.03
43 | T364A | 0.985 ± 0.21
44 | T364M | 1.64 ± 0.12
45 | T364L | 1.22 ± 0.37
46 | T364E | 0.981 ± 0.17
47 | T364Q | 0.914 ± 0.26
48 | T364V | 0.952 ± 0.28

Row | Variant | AIRE transcriptional activation functional score
49 | T364N | 0.588 ± 0.082
50 | T364F | 0.115 ± 0.34
51 | T364R | 0.983 ± 0.45
52 | T364K | 0.737 ± 0.18
53 | T364H | 1.07 ± 0.46
54 | T364D | 0.191 ± 0.15
55 | T364S | 0.643 ± 0.38
56 | T364Y | 1.11 ± 0.28
57 | P355I | 1.01 ± 0.11
58 | P355K | 1.2 ± 0.11
59 | P355E | 0.969 ± 0.29
60 | P355L | 1.11 ± 0.19
61 | P355Q | 1.24 ± 0.15
62 | P355D | 1.13 ± 0.15
63 | P355H | 1.08 ± 0.14
64 | P355M | 0.914 ± 0.015
65 | P355A | 0.981 ± 0.13
66 | P355V | 1 ± 0.13
67 | P355F | 1 ± 0.11
68 | P355S | 0.93 ± 0.21
69 | P355W | 1.32 ± 0.019
70 | P355R | 1.04 ± 0.27
71 | P355N | 1.11 ± 0.24
72 | P355T | 1.09 ± 0.27

Row | Variant | AIRE transcriptional activation functional score
73 | P355C | 1.05 ± 0.086
74 | P355Y | 1.49 ± 0.22
75 | P355G | 1.06 ± 0.15
76 | P357K | 0.713 ± 0.13
77 | P357G | 0.884 ± 0.26
78 | P357M | 1.29 ± 0.051
79 | P357E | 1.05 ± 0.18
80 | P357V | 0.974 ± 0.11
81 | P357S | 0.935 ± 0.12
82 | P357C | 1.23 ± 0.24
83 | P357I | 1.11 ± 0.14
84 | P357N | 1.32 ± 0.045
85 | P357R | 1.07 ± 0.24
86 | P357H | 0.925 ± 0.15
87 | P357W | 1.17 ± 0.017
88 | P357D | 0.863 ± 0.065
89 | P357A | 1.01 ± 0.11
90 | P357Q | 1.06 ± 0.076
91 | P357F | 1.27 ± 0.11
92 | P357T | 1.1 ± 0.11
93 | P357Y | 1.34 ± 0.16
94 | P357L | 1.2 ± 0.13
95 | R356M | 1.16 ± 0.041
96 | R356W | 0.964 ± 0.017

Row | Variant | AIRE transcriptional activation functional score
97 | R356K | 0.935 ± 0.089
98 | R356N | 1.01 ± 0.054
99 | R356P | 0.873 ± 0.25
100 | R356V | 0.975 ± 0.12
101 | R356C | 1.05 ± 0.071
102 | R356H | 0.935 ± 0.09
103 | R356Y | 1.03 ± 0.2
104 | R356E | 1.09 ± 0.1
105 | R356G | 1.06 ± 0.19
106 | R356Q | 0.912 ± 0.12
107 | R356T | 0.752 ± 0.28
108 | R356A | 0.824 ± 0.18
109 | R356S | 0.974 ± 0.15
110 | R356F | 1.15 ± 0.11
111 | R356D | 1.05 ± 0.19
112 | R356L | 0.928 ± 0.14
113 | R356I | 1.03 ± 0.14
114 | P361Q | 1.18 ± 0.19
115 | P361R | 0.983 ± 0.14
116 | P361W | 1.29 ± 0.094
117 | P361T | 1.12 ± 0.13
118 | P361E | 0.976 ± 0.18
119 | P361G | 1.21 ± 0.2
120 | P361F | 1.18 ± 0.14

Row | Variant | AIRE transcriptional activation functional score
121 | P361L | 1.07 ± 0.17
122 | P361D | 1.15 ± 0.28
123 | P361C | 1.27 ± 0.11
124 | P361A | 1.01 ± 0.21
125 | P361I | 1.09 ± 0.13
126 | P361K | 1.12 ± 0.16
127 | P361Y | 1.13 ± 0.14
128 | P361H | 1.14 ± 0.1
129 | P361N | 0.778 ± 0.12
130 | P361M | 1.3 ± 0.036
131 | P361V | 1.21 ± 0.13
132 | P361S | 1.21 ± 0.15
133 | E359W | 1.24 ± 0.06
134 | E359G | 1.02 ± 0.18
135 | E359V | 1.08 ± 0.24
136 | E359S | 1.27 ± 0.24
137 | E359K | 0.82 ± 0.099
138 | E359C | 1.11 ± 0.15
139 | E359D | 0.954 ± 0.056
140 | E359L | 1.01 ± 0.22
141 | E359R | 1.02 ± 0.24
142 | E359H | 0.97 ± 0.34
143 | E359T | 0.92 ± 0.23
144 | E359M | 1.08 ± 0.08

Row | Variant | AIRE transcriptional activation functional score
145 | E359N | 0.928 ± 0.13
146 | E359P | 0.935 ± 0.33
147 | E359I | 1.14 ± 0.21
148 | E359Q | 0.92 ± 0.11
149 | E359A | 0.785 ± 0.2
150 | E359Y | 1.11 ± 0.12
151 | E359F | 1.18 ± 0.14
152 | E353D | 0.963 ± 0.19
153 | E353A | 1.07 ± 0.18
154 | E353C | 1.2 ± 0.23
155 | E353W | 1.17 ± 0.028
156 | E353Y | 1.42 ± 0.078
157 | E353L | 1.18 ± 0.15
158 | E353G | 0.959 ± 0.24
159 | E353T | 1.19 ± 0.13
160 | E353I | 1.13 ± 0.076
161 | E353F | 1.25 ± 0.11
162 | E353K | 1.17 ± 0.078
163 | E353M | 1.19 ± 0.042
164 | E353H | 0.837 ± 0.14
165 | E353V | 1.15 ± 0.089
166 | E353N | 0.963 ± 0.22
167 | E353S | 1.14 ± 0.19

Reference: the supplement of paper PMC12667976
